Test results published in patent US20240059782A1 (AGILENT TECHNOLOGIES, published 2024).

T1: human B-cell maturation antigen (BCMA) (human, UniProt Q02223 1-184)
T1 construct: whole, on cells; Endogenous BCMA in tissue sections and BCMA-positive cell lines; also called tumor necrosis factor receptor superfamily member 17; TNFRSF17
T1 sequence (looked up): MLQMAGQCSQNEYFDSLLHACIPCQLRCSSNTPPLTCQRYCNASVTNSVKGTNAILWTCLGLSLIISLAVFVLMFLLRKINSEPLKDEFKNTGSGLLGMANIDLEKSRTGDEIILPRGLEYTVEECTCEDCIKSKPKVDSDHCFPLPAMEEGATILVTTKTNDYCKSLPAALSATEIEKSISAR

T2: recombinant fusion protein containing the entire extracellular domain of human BCMA (amino acids 1-54) in … (human, UniProt Q02223 1-54)
T2 construct: range 1-54; Expressed in HEK cells; also called BCMA antigen; extracellular BCMA antigen; not shown: rabbit Fc domain
T2 sequence (looked up): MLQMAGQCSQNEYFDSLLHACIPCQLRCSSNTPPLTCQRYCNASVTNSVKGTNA

T3: recombinant fusion protein containing the entire intracellular domain of BCMA (amino acids 78-184) (human, UniProt Q02223 78-184)
T3 construct: range 78-184; also called intracellular BCMA antigen; the antigen
T3 sequence (looked up): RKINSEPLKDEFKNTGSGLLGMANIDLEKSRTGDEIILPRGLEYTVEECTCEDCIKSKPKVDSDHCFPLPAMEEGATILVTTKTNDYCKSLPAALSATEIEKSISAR


Columns and labels:
[1] = target: T1, human B-cell maturation antigen (BCMA); experiment: supersensitive IHC on normal colon
[2] = target: T2, recombinant fusion protein containing …; experiment: BLI (BLItz), recombinant antibody on the immunising antigen
[3] = target: T1, human B-cell maturation antigen (BCMA); experiment: supersensitive IHC on reactive lymph node
[4] = target: T3, recombinant fusion protein containing …; experiment: BLI (BLItz), recombinant antibody on the immunising antigen
[5] = target: T1, human B-cell maturation antigen (BCMA); experiment: standard IHC (Envision FLEX) on reactive lymph node

| binding result [1] | binding result [2] | binding result [3] | binding result [4] | binding result [5] | Binder |
| --- | --- | --- | --- | --- | --- |
| binds | binds | – | – | – | anti-human BCMA antibody clone 9H5 (Extracellular) (antibody, V domains shown, Rabbit monoclonal IgG/kappa1; The chains are built here from V + constant entries so that the signal peptide is left out; Supersensitive IHC used B-cell culture supernatant; BLI and standard IHC used recombinant antibody from HEK293-6E cells; also called B cell clone 9H5; BCMA clone 9H5) VH: QSLEESGGRLVTPGGSLTLTCTVSGFSLSAYAMSWVRQAPGKGLEWIGYINYDGIAYYTNWAKGRFTISKTSTTVDLKITSPTTEDTAAYFCASDLLGVFNLWGQGTLVTVSS VL: AAVLTQTASPVSAAVGGTVTINCQASQSVYSNNRLSWFQQKPGQPPKLLIYYASFLASGVPSRFKGSGSGAQFTLTISDLQCDDAATYYCAGGYISYSDNAFGGGTEVVVKG |
| – | – | binds | binds | – | anti-human BCMA antibody clone 5C1 (intracellular) (antibody, V domains shown, Rabbit monoclonal IgG/kappa1; also called B cell clone 5C1; intracellular clone 5C1) VH: QSLEESRGGLFKPTDTLTLTCTVSGFSLKTYVINWVRQAPGNGLEWIGIIDTGDMTYYASWAKSRSTITRNTNENTVTLKMTSLTAADTATYFCASGDIWGPGTLVTVSS VL: AQVLTQTASPVSAAVGGTVTINCQASQSVYSNWLSWFQQKPGQPPKRLIYSASTLASGVSSRFKGSGSGTQFTLTISDVQCDDAATYYCLGEFNCARADCRAFGGGTEVVVKG |
| – | binds | – | – | binds | anti-human BCMA antibody clone 10A2 (Extracellular) (antibody, V domains shown, Rabbit monoclonal IgG/kappa1; The chains are built here from V + constant entries so that the signal peptide is left out; Supersensitive IHC used B-cell culture supernatant; BLI and standard IHC used recombinant antibody from HEK293-6E cells; also called B cell clone 10A2; BCMA clone 10A2) VH: QSVEESGGRLVTPGTPLTLTCTASGFSLTTYAMGWVRQAPGKGLEWIGYIWSSGTTDYASWAKGRFTISKTSPTVDLKMTSPTTEDTATYFCARYINYVTGDLWGQGTLVTVSS VL: AQVLTQTPSPVSADVGGTVTINCQASQSVYNNVLLAWYQQKAGQPPKLLIYKASTLASGVSSRFKGSGSGTQFTLTISGVQCDDAATYYCQGEFSCSSADCTAFGGGTEVVVKG |
